Assay [1] addresses T1, human c-Met/Fc fusion protein (R&D Systems) (human, UniProt P08581 25-932).
T1 construct: Bought protein; also called c-Met-Fc (#358-MT/CF, R&D Systems); human c-Met/Fc protein; not shown: Fc part of the bought fusion protein
The assay is described as follows: ELISA, hybridoma culture on plate-coated human c-Met/Fc fusion protein. The protocol: The hybridoma cell culture obtained in Reference Example 1.1.2 was added in an amount of 50 μL to each well of the plates and incubated for 1 hour. The cells remaining unreacted were washed out with a sufficient amount of Tris-buffered saline and Tween 20 (TBST). Goat anti-mouse IgG-horseradish peroxidase (HRP) was added to the plates and incubated for 1 hour at room temperature. The plates were washed with a sufficient amount of TBST, followed by reacting the peroxidase with a substrate (OPD). Absorbance at 450 nm was measured on an ELISA reader.
In general terms: ELISA stands for enzyme-linked immunosorbent assay.

For assay [2], the target named is T1, human c-Met/Fc fusion protein (R&D …). The assay is described as follows: SPR, Biacore T100; antibody captured by human Fab capture on CM5 chip, c-Met-Fc as analyte. The protocol: (§1) An examination was made to see whether the antibody-drug conjugates maintain affinity for the antigen.
(§2) Briefly, a human Fab capture (GE Healthcare) was immobilized on CM5 chip (#BR-1005-30, GE) according to the manufacturer's instruction. […] The chip was regenerated with 10 mM Glycine-HCl (pH 1.5). To quantify the affinity, the data obtained above was fitted using BIAevaluation software (GE Healthcare, Biacore T100 evaluation software).
On the technique in general: SPR reads the build-up and loss of mass on a sensor chip optically.

The target is the same in assay [3]. Kind of assay: SPR, Biacore T100; ADC captured by human Fab capture on CM5 chip, c-Met-Fc as analyte. As for the experimental part: as §1, §2

T1 sequence (P08581 25-932 limits assumed): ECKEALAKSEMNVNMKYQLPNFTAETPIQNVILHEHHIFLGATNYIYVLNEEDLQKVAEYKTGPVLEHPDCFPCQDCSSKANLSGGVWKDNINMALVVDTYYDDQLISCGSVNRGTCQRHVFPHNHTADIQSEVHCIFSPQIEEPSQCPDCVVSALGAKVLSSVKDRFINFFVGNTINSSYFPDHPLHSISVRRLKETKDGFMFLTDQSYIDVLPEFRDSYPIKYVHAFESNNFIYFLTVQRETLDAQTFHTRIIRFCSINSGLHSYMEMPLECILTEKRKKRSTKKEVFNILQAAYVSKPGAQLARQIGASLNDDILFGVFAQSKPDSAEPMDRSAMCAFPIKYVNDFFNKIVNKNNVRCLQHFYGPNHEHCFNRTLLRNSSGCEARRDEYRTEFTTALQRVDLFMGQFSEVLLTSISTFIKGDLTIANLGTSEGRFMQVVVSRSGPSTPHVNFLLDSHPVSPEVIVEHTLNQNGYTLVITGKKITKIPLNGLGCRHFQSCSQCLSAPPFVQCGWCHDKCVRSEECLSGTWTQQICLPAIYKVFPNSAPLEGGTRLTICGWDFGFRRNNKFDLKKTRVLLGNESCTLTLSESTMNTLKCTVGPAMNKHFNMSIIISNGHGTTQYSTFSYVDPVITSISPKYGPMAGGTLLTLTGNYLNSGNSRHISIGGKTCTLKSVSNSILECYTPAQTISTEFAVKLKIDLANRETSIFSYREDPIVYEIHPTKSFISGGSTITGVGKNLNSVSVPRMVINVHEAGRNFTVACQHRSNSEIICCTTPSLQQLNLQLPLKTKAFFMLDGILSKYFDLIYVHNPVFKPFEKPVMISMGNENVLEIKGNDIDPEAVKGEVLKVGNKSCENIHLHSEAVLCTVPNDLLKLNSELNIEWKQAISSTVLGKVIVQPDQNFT

B1: AbF46, mouse monoclonal antibody to c-Met (hybridoma KCLRF-BP-00220) (antibody, V domains shown)
VH: EVKLVESGGGLVQPGGSLRLSCATSGFTFTDYYMSWVRQPPGKALEWLGFIRNKANGYTTEYSASVKGRFTISRDNSQSILYLQMDTLRAEDSATYYCARDNWFAYWGQGTLVTVSA
VL: DILMTQSPSSLTVSAGEKVTMSCKSSQSLLASGNQNNYLAWHQQKPGRSPKMLIIWASTRVSGVPDRFIGSGSGTDFTLTINSVQAEDLAVYYCQQSYSAPLTFGAGTKLELK
notes: Tested as hybridoma culture supernatant in the selection ELISA; also called mouse antibody AbF46
On to B1, for which the binding result in assay [1] is “binds”.

B2: anti-c-Met antibody L3-1Y/IgG2 (antibody, V domains shown)
VH: EVQLVESGGGLVQPGGSLRLSCAASGFTFTDYYMSWVRQAPGKGLEWLGFIRNKANGYTTEYSASVKGRFTISRDNSKNTLYLQMNSLRAEDTAVYYCARDNWFAYWGQGTLVTVSS
VL: DIQMTQSPSSLSASVGDRVTITCKSSQSLLASGNQNNYLAWYQQKPGKAPKMLIIWASTRVSGVPSRFSGSGSGTDFTLTISSLQPEDFATYYCQQSYSRPYTFGQGTKVEIKR
notes: also called huAbF46-H4-A1 (IgG2 Fc)
B2: in assay [2], binding was characterised by a dissociation constant (Kd) of 58 pM; the koff (usually the rate constant with which the complex falls apart) is 3.42e-05 s⁻¹; the kon – broadly, the second-order rate constant of association – was 589000 M⁻¹ s⁻¹.

B3: antibody-drug conjugate ADC1 (L3-1Y/IgG2 conjugated with docetaxel by amine coupling, feed molar ratio 5; DAR 3.7) (antibody, V domains shown)
VH: B2 VH
VL: B2 VL
modifications: docetaxel-succinate (NHS-DTX) coupled to primary amines of lysine residues; sites not stated; DAR 3.7 for the whole antibody
notes: also called ADC (DAR 3.7)
On to B3, for which, in assay [3], the Kd (in general, the concentration at which binding is half-saturated) is 99.8 pM; the koff is 3.63e-05 s⁻¹; the kon came out at 364000 M⁻¹ s⁻¹.
